Measured values taken from paper PMC3983572.

Biological target: protein interacting with C kinase 1 (PICK1), recombinant full-length (UniProt Q9EP80)
Assay: fluorescence polarisation

Chain of UniProt Q9EP80 (Q9EP80 whole entry): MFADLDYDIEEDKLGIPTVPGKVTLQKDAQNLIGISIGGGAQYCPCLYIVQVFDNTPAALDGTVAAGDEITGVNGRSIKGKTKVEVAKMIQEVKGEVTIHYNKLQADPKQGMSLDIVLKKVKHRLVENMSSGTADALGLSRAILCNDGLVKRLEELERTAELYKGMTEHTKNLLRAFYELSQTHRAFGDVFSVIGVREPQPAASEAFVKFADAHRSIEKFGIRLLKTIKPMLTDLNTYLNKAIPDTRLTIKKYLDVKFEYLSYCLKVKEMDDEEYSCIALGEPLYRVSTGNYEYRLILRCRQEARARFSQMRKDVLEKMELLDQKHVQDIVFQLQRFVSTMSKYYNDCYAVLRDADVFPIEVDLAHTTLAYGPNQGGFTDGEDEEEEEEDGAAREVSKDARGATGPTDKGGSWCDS

Ki: 24 µM
Substance: unlabeled GluA2 peptide
